Reference: patent US20230002480A1

Tests used:
Experiment in all cases: cell-based or functional assay
[1] = target: HIV-1 Env of pseudovirus REJO4541.67 (HIV-1)
[2] = target: HIV-1 Env of pseudovirus 6540.v4.c1 (HIV-1)
[3] = target: HIV-1 Env of pseudovirus T255-34 (HIV-1)
[4] = target: HIV-1 Env of pseudovirus X1193_c1 (HIV-1)
[5] = target: HIV-1 Env of pseudovirus 89-F1_2_25 (HIV-1)
[6] = target: HIV-1 Env of pseudovirus 6244_13_B5_4576 (HIV-1)
[7] = target: HIV-1 Env of pseudovirus T257-31 (HIV-1)
[8] = target: HIV-1 Env of pseudovirus CNE30 (HIV-1)
[9] = target: HIV-1 Env of pseudovirus CNE17 (HIV-1)
[10] = target: HIV-1 Env of pseudovirus CNE21 (HIV-1)
[11] = target: HIV-1 Env of pseudovirus 1012_11_TC21_3257 (HIV-1)
[12] = target: HIV-1 Env of pseudovirus ZM214M.PL15 (HIV-1)
[13] = target: HIV-1 Env of pseudovirus 1394C9G1(Rev-) (HIV-1)
[14] = target: HIV-1 Env of pseudovirus A07412M1.vrc12 (HIV-1)
[15] = target: HIV-1 Env of pseudovirus 6041.v3.c23 (HIV-1)
[16] = target: HIV-1 Env of pseudovirus 3103.v3.c10 (HIV-1)
[17] = target: HIV-1 Env of pseudovirus SC05_8C11_2344 (HIV-1)
[18] = target: HIV-1 Env of pseudovirus CNE5 (HIV-1)
[19] = target: HIV-1 Env of pseudovirus Du422.1 (HIV-1)
[20] = target: HIV-1 Env of pseudovirus TRO.11 (HIV-1)
[21] = target: HIV-1 Env of pseudovirus BJOX028000.10.3 (HIV-1)
[22] = target: HIV-1 Env of pseudovirus 620345.c01 (HIV-1)
[23] = target: HIV-1 Env of pseudovirus R3265.c06 (HIV-1)
[24] = target: HIV-1 Env of pseudovirus THRO4156.18 (HIV-1)
[25] = target: HIV-1 Env of pseudovirus Du172.17 (HIV-1)
[26] = target: HIV-1 Env of pseudovirus X1632_S2_B10 (HIV-1)
[27] = target: HIV-1 Env of pseudovirus QH0692.42 (HIV-1)
[28] = target: HIV-1 Env of pseudovirus HIV-001428-2.42 (HIV-1)
[29] = target: HIV-1 Env of pseudovirus Q842.d12 (HIV-1)
[30] = target: HIV-1 Env of pseudovirus R1166.c01 (HIV-1)
[31] = target: HIV-1 Env of pseudovirus 1006_11_C3_1601 (HIV-1)
[32] = target: HIV-1 Env of pseudovirus 211-9 (HIV-1)
[33] = target: HIV-1 Env of pseudovirus 3016.v5.c45 (HIV-1)
[34] = target: HIV-1 Env of pseudovirus 7030102001E5(Rev-) (HIV-1)
[35] = target: HIV-1 Env of pseudovirus HIV-16845-2.22 (HIV-1)
[36] = target: HIV-1 Env of pseudovirus Ce2060_G9 (HIV-1)

8ANC195 (antibody)
neutralization IC50 [1]: 0.08 µg/mL
neutralization IC80 [1]: 0.68 µg/mL
IC50, titer in TZM.bl cells [2]: > 50 µg/mL
IC80, titer in TZM.bl cells [2]: > 50 µg/mL
IC50, titer in TZM.bl cells [3]: 0.54 µg/mL
IC80, titer in TZM.bl cells [3]: 8.09 µg/mL
IC50, titer in TZM.bl cells [4]: 0.27 µg/mL
IC80, titer in TZM.bl cells [4]: 1.66 µg/mL
IC50, titer in TZM.bl cells [5]: > 50 µg/mL
IC80, titer in TZM.bl cells [5]: > 50 µg/mL
neutralization IC50 [6]: > 50 µg/mL
neutralization IC80 [6]: > 50 µg/mL
neutralization IC50 [7]: 0.32 µg/mL
neutralization IC80 [7]: 3.89 µg/mL
neutralization IC50 [8]: 7.52 µg/mL
neutralization IC80 [8]: 40.5 µg/mL
neutralization IC50 [9]: 2.59 µg/mL
neutralization IC80 [9]: 11.1 µg/mL
neutralization IC50 [10]: 0.27 µg/mL
neutralization IC80 [10]: 1.52 µg/mL
neutralization IC50 [11]: > 50 µg/mL
neutralization IC80 [11]: > 50 µg/mL
neutralization IC50 [12]: 0.91 µg/mL
neutralization IC80 [12]: 12.3 µg/mL
neutralization IC50 [13]: > 50 µg/mL
neutralization IC80 [13]: > 50 µg/mL
IC50, titer in TZM.bl cells [14]: 2.25 µg/mL
IC80, titer in TZM.bl cells [14]: 7.49 µg/mL
IC50, titer in TZM.bl cells [15]: > 50 µg/mL
IC80, titer in TZM.bl cells [15]: > 50 µg/mL
IC50, titer in TZM.bl cells [16]: 48.1 µg/mL
IC80, titer in TZM.bl cells [16]: > 50 µg/mL
neutralization IC50 [17]: 0.47 µg/mL
neutralization IC80 [17]: 3.06 µg/mL
IC50, titer in TZM.bl cells [18]: 2.12 µg/mL
IC80, titer in TZM.bl cells [18]: 9.67 µg/mL
neutralization IC50 [19]: > 50 µg/mL
neutralization IC80 [19]: > 50 µg/mL
neutralization IC50 [20]: 0.18 µg/mL
neutralization IC80 [20]: 0.89 µg/mL
IC50, titer in TZM.bl cells [21]: 0.45 µg/mL
IC80, titer in TZM.bl cells [21]: 2.83 µg/mL
IC50, titer in TZM.bl cells [22]: > 50 µg/mL
IC80, titer in TZM.bl cells [22]: > 50 µg/mL
IC50, titer in TZM.bl cells [23]: 50 µg/mL
IC80, titer in TZM.bl cells [23]: > 50 µg/mL
neutralization IC50 [24]: > 50 µg/mL
neutralization IC80 [24]: > 50 µg/mL
neutralization IC50 [25]: > 30 µg/mL
neutralization IC80 [25]: > 30 µg/mL
IC50, titer in TZM.bl cells [26]: 0.47 µg/mL
IC80, titer in TZM.bl cells [26]: 4.11 µg/mL
neutralization IC50 [27]: 2.71 µg/mL
neutralization IC80 [27]: 17.1 µg/mL
neutralization IC50 [28]: > 50 µg/mL
neutralization IC80 [28]: > 50 µg/mL
neutralization IC50 [29]: > 30 µg/mL
neutralization IC80 [29]: > 30 µg/mL
IC50, titer in TZM.bl cells [30]: 4.83 µg/mL
IC80, titer in TZM.bl cells [30]: 4.83 µg/mL
neutralization IC50 [31]: 0.43 µg/mL
neutralization IC80 [31]: 1.98 µg/mL
IC50, titer in TZM.bl cells [32]: 1.34 µg/mL
IC80, titer in TZM.bl cells [32]: 8.43 µg/mL
IC50, titer in TZM.bl cells [33]: 0.87 µg/mL
IC80, titer in TZM.bl cells [33]: > 50 µg/mL
neutralization IC50 [34]: 0.86 µg/mL
neutralization IC80 [34]: 8.32 µg/mL
neutralization IC50 [35]: 3.3 µg/mL
neutralization IC80 [35]: 20.1 µg/mL
neutralization IC50 [36]: 6.2 µg/mL
neutralization IC80 [36]: > 50 µg/mL

VRC01 (antibody)
IC50, titer in TZM.bl cells [1]: 0.06 µg/mL
IC80, titer in TZM.bl cells [1]: 0.25 µg/mL
IC50, titer in TZM.bl cells [2]: > 50 µg/mL
IC80, titer in TZM.bl cells [2]: > 50 µg/mL
IC50, titer in TZM.bl cells [3]: 0.7 µg/mL
IC80, titer in TZM.bl cells [3]: 2.7 µg/mL
IC50, titer in TZM.bl cells [4]: 0.11 µg/mL
IC80, titer in TZM.bl cells [4]: 0.32 µg/mL
IC50, titer in TZM.bl cells [6]: 0.21 µg/mL
IC80, titer in TZM.bl cells [6]: 0.53 µg/mL
IC50, titer in TZM.bl cells [7]: 2.8 µg/mL
IC80, titer in TZM.bl cells [7]: 8.66 µg/mL
IC50, titer in TZM.bl cells [11]: 0.12 µg/mL
IC80, titer in TZM.bl cells [11]: 0.32 µg/mL
IC50, titer in TZM.bl cells [12]: 0.44 µg/mL
IC80, titer in TZM.bl cells [12]: 2.6 µg/mL
IC50, titer in TZM.bl cells [15]: 0.02 µg/mL
IC80, titer in TZM.bl cells [15]: 0.08 µg/mL
IC50, titer in TZM.bl cells [16]: 0.93 µg/mL
IC80, titer in TZM.bl cells [16]: 2.49 µg/mL
IC50, titer in TZM.bl cells [17]: 0.64 µg/mL
IC80, titer in TZM.bl cells [17]: 1.91 µg/mL
IC50, titer in TZM.bl cells [18]: 0.37 µg/mL
IC80, titer in TZM.bl cells [18]: 1.1 µg/mL
IC50, titer in TZM.bl cells [19]: > 50 µg/mL
IC80, titer in TZM.bl cells [19]: > 50 µg/mL
IC50, titer in TZM.bl cells [20]: 0.21 µg/mL
IC80, titer in TZM.bl cells [20]: 0.83 µg/mL
IC50, titer in TZM.bl cells [22]: > 50 µg/mL
IC80, titer in TZM.bl cells [22]: > 50 µg/mL
IC50, titer in TZM.bl cells [23]: 0.45 µg/mL
IC80, titer in TZM.bl cells [23]: 1.88 µg/mL
IC80, titer in TZM.bl cells [24]: 23 µg/mL
IC50, titer in TZM.bl cells [25]: > 50 µg/mL
IC80, titer in TZM.bl cells [25]: > 50 µg/mL
IC50, titer in TZM.bl cells [26]: 0.12 µg/mL
IC80, titer in TZM.bl cells [26]: 0.74 µg/mL
IC50, titer in TZM.bl cells [27]: 1.5 µg/mL
IC80, titer in TZM.bl cells [27]: 4.8 µg/mL
IC50, titer in TZM.bl cells [28]: 0.02 µg/mL
IC80, titer in TZM.bl cells [28]: 0.06 µg/mL
IC50, titer in TZM.bl cells [29]: 0.03 µg/mL
IC80, titer in TZM.bl cells [29]: 0.096 µg/mL
IC50, titer in TZM.bl cells [30]: 1.7 µg/mL
IC80, titer in TZM.bl cells [30]: 4.58 µg/mL
IC50, titer in TZM.bl cells [31]: 0.15 µg/mL
IC80, titer in TZM.bl cells [31]: 0.39 µg/mL
IC50, titer in TZM.bl cells [32]: 14.3 µg/mL
IC80, titer in TZM.bl cells [32]: > 50 µg/mL
IC50, titer in TZM.bl cells [33]: 0.16 µg/mL
IC80, titer in TZM.bl cells [33]: 0.42 µg/mL
IC50, titer in TZM.bl cells [34]: 0.54 µg/mL
IC80, titer in TZM.bl cells [34]: 2.08 µg/mL
IC50, titer in TZM.bl cells [35]: 2.8 µg/mL
IC80, titer in TZM.bl cells [35]: 12.7 µg/mL
IC50, titer in TZM.bl cells [36]: 0.29 µg/mL
IC80, titer in TZM.bl cells [36]: 1.48 µg/mL
